In the RNAGym collection of RNA variant scans (doi:10.7554/elife.80360):

B1: Hammerhead Ribozyme (parent)
chain: ACCGGAUGUGCUUUCCGGUCUGAUGAGUCCGUGAGGACGAAACAG

Variants of: B1
Assay: self-cleavage, relative activity (ratio to wild type); higher = more cleavage; co-transcriptional

In order of rising self-cleavage:
1. ACCGGAUGUGCUUACCGGUCUGAUGAGUCCGUGAGGACGUAACAG [U14A A40U]  0.237
2. ACCGGAUGUGCUUACCGGUCUGAUGAGUCCGUGAGGACGAAUCAG [U14A A42U]  0.272
3. ACCGGAUGUGCUUACCGGUCUGAUGAGUCCGUGAGGACGAAGCAG [U14A A42G]  0.279
4. ACCGGAUGUGCUUACCGGUCUGAUGAGUCCGUGAGGACGGAACAG [U14A A40G]  0.296
5. ACCGGAUGUGCUUACCGGUCUGAUGAGUCCGUGAGGACGAACCAG [U14A A42C]  0.296
6. ACCGGAUGUGCUGUCCGGUCUGAUUAGUCCGUGAGGACGAAACAG [U13G G25U]  0.303
7. ACCGGAUGUGCUGUCCGGUCUGAUCAGUCCGUGAGGACGAAACAG [U13G G25C]  0.315
8. ACCGGAUGUGCUUACCGGUCUGAUGAGUCCGUGAGGACGAAAAAG [U14A C43A]  0.333
9. ACCGGAUGUGCUUACCGGUCUGAUGAGUCCGUGAGGACGAAAGAG [U14A C43G]  0.334
10. ACCGGAUGUGCUGUCCGGUCUGAUAAGUCCGUGAGGACGAAACAG [U13G G25A]  0.367
11. ACCGGAUGUGCUUACCCGUCUGAUGAGUCCGUGAGGACGAAACAG [U14A G17C]  0.375
12. ACCGGAUGUGCUGUCCGGUCUGAUGAUUCCGUGAGGACGAAACAG [U13G G27U]  0.375
13. ACCGGAUGUGCUUACCGGUCUGAUGAUUCCGUGAGGACGAAACAG [U14A G27U]  0.405
14. ACCGGAUGUGCUUACCGGUCUGAUGAGUCCGUGAGGACGAAAUAG [U14A C43U]  0.41
15. ACCGGAUGUGCUUACCGGUCUGAUGAGUCCGUGAGGACGAAACCG [U14A A44C]  0.414
16. ACCGGAUGUGCUUACCGGUCUGAUGAGUCCGUGAGGACGAAACUG [U14A A44U]  0.417
17. ACCGGAUGUGCUGACCGGUCUGAUGAGUCCGUGAGGACGAAACAG [U13G U14A]  0.428
18. ACCGGAUGUGCUUACCGGUCUGAUGAGUCCGUGAGGACGCAACAG [U14A A40C]  0.491
19. ACCGGAUGUGCUGUCCGGUCAGAUGAGUCCGUGAGGACGAAACAG [U13G U21A]  0.507
20. ACCGGAUGUGCUGUCCGGUCGGAUGAGUCCGUGAGGACGAAACAG [U13G U21G]  0.537
21. ACCGGAUGUGCUGUCCGGUCUGAUGACUCCGUGAGGACGAAACAG [U13G G27C]  0.546
22. ACCGGAUGUGCUUACCGGUCUGAUGAGUUCGUGAGGACGAAACAG [U14A C29U]  0.557
23. ACCGGAUGUGCUUACCGGUCUGAUGAGUGCGUGAGGACGAAACAG [U14A C29G]  0.562
24. ACCGGAUGUGCUUACCUGUCUGAUGAGUCCGUGAGGACGAAACAG [U14A G17U]  0.564
25. ACCGGAUGUGCUGUCCGGUCCGAUGAGUCCGUGAGGACGAAACAG [U13G U21C]  0.579
26. ACCGGAUGUGCUUACCAGUCUGAUGAGUCCGUGAGGACGAAACAG [U14A G17A]  0.586
27. ACCGGAUGUGCUGUCCGGUCUGAUGAGUCCGUGAGGACGAAACAC [U13G G45C]  0.596
28. ACCGGAUGUGCUGCCCGGUCUGAUGAGUCCGUGAGGACGAAACAG [U13G U14C]  0.598
29. ACCGGAUGUGCUUACCGGUCUGAUGAGUACGUGAGGACGAAACAG [U14A C29A]  0.608
30. ACCGGAUGUGCUUACCGGUCUGAUGAGUCCGUGAGGUCGAAACAG [U14A A37U]  0.618
31. ACCGGAUGUGCUUACCGGUCUGAUGAGUCGGUGAGGACGAAACAG [U14A C30G]  0.624
32. ACCGGAUGUGCUUACCGGUCUGAUGAGUCCGUGACGACGAAACAG [U14A G35C]  0.654
33. ACCGGAUGUGCUGUCCGGUCUGAUGAAUCCGUGAGGACGAAACAG [U13G G27A]  0.66
34. ACCGGAUGUGCUUACCGGUCUGAUGACUCCGUGAGGACGAAACAG [U14A G27C]  0.661
35. ACCGGAUGUGCUUACCGGUCUGAUGAGUCCGUGAAGACGAAACAG [U14A G35A]  0.665
36. ACCGGAUGUGCUGUCCGGUCUGAUGAGACCGUGAGGACGAAACAG [U13G U28A]  0.673
37. ACCGGAUGUGCUGUCCGGUCUGAUGAGUCCGUGAGGACGAAACAU [U13G G45U]  0.702
38. ACCGGAUGUGCUGUCCGGUCUGAUGAGUCCGUGAGGACGAAACAA [U13G G45A]  0.719
39. ACCGGAUGUGCUUACCGGUCUGAUGAGUCCGUAAGGACGAAACAG [U14A G33A]  0.751
40. ACCGGAUGUGCUUACCGGUCUGAUGAAUCCGUGAGGACGAAACAG [U14A G27A]  0.771
41. ACCGGAUGUGCUGGCCGGUCUGAUGAGUCCGUGAGGACGAAACAG [U13G U14G]  0.796
42. ACCGGAUGUGCUUACCGGUCUGAUGAGUCCGUGAGGGCGAAACAG [U14A A37G]  0.811
43. ACCGGAUGUGCUUACCGGUCUGAUGAGUCCGUGAGGCCGAAACAG [U14A A37C]  0.815
44. ACCGGAUGUGCUGUCCGGUCUGAUGAGUCCGUGACGACGAAACAG [U13G G35C]  0.819
45. ACCGGAUGUGCUGUCCGGUCUGAUGAGUCCUUGAGGACGAAACAG [U13G G31U]  0.82
46. ACCGGAUGUGCUUACCGGUCUGAUGAGUCAGUGAGGACGAAACAG [U14A C30A]  0.838
47. ACCGGAUGUGCUUACCGGUCUGAUGAGUCCGUUAGGACGAAACAG [U14A G33U]  0.872
48. ACCGGAUGUGCUGUCCGGUCUGAUGAGUCCGUGAUGACGAAACAG [U13G G35U]  0.873
49. ACCGGAUGUGCUGUCCGGUCUGAUGAGUCCGUGAAGACGAAACAG [U13G G35A]  0.916
50. ACCGGAUGUGCUGUCCGGUCUGAUGAGUCCCUGAGGACGAAACAG [U13G G31C]  0.943
51. ACCGGAUGUGCUUACCGGUCUGAUGAGUCCGUGAGGACGAAACAG [U14A]  0.954
52. ACCGGAUGUGCUUACCGGUCUGAUGAGUCUGUGAGGACGAAACAG [U14A C30U]  0.96
53. ACCGGAUGUGCUGUCCGGUCUGAUGAGGCCGUGAGGACGAAACAG [U13G U28G]  0.973
54. ACCGGAUGUGCUUACCGGUCUGAUGAGUCCGUCAGGACGAAACAG [U14A G33C]  0.987
55. ACCGGAUGUGCUGUCCGGUCUGAUGAGCCCGUGAGGACGAAACAG [U13G U28C]  1.01
56. ACCGGAUGUGCUUACCGGUCUGAUGAGUCCGUGAGGACGAAACGG [U14A A44G]  1.06
57. ACCGGAUGUGCUGUCCGGUCUGAUGAGUCCAUGAGGACGAAACAG [U13G G31A]  1.1
